Values of other authors, collected in PMC11381289.
pKd: −log10 of the molar value. Like-named read-outs stand apart in the source and are kept apart here.

How the values were obtained:
[1] = biological target: TL (Mus musculus) (UniProt P14432)
[2] = biological target: TL (Mus musculus) (UniProt P14432); remark: listed apart in the source

Sequence of UniProt P14432 (P14432 27-314): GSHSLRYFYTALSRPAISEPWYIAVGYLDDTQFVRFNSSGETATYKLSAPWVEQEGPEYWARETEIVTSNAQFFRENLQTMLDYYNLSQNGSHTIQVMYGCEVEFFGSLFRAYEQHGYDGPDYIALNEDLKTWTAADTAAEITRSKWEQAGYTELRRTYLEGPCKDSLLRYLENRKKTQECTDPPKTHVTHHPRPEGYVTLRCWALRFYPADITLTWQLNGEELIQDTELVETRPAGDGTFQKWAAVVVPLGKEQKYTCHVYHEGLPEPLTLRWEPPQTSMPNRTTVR

| pKd [1] | pKd [2] | Substance |
| --- | --- | --- |
| 4.92 |  | CD8αα (from UniProt P01731) |
|  | < 4.05 | CD8αβ (from UniProt P01731) |
